Entries after “also recorded” stand apart in the source; their conditions may differ.
Test system: blood clots (fibrin and NET scaffold)
Assay: Clot formation in recalcified blood with or without PAF-activated neutrophils (thrombolysis)
Format: cell-based, human
Settings: tPA 25 μg/mL
Description: Fibrin polymerization was induced in blood by recalcification and incubated either in the absence (medium) or presence of neutrophils preactivated by PAF to induce NET formation (neutrophils+PAF). Samples were treated with DNase to digest extracellular traps or tPA for fibrin digestion. […] (Scale bar, 1 cm.) The graph presents quantification of the clots by weighing. […] Data are presented as mean±SEM, n=4; (ANOVA; ***P<0.001). The first bar in each x-axis category represents the untreated samples, the second bar represents the samples treated with DNase, the third bar represents the samples treated with tPA, and the fourth bar represents the samples treated with tPA and DNase.
The relative susceptibility of NETs and fibrin to serve as scaffolds for blood clots to thrombolysis was examined (FIG. 20). Neutrophils were prestimulated with platelet-activating factor to release NETs with recalcified blood under stirring conditions. Two-hundred-fifty microliters of 5×10^6 neutrophils per milliliter in RPMI medium were activated by platelet activating factor (50 μM Calbiochem) at 37° C. under static conditions to induce NET formation. Control samples were 250 μL medium alone, 250 μL of unstimulated neutrophils, or 250 μL of 50 μM PAF in medium. After 10 min, 250 μL of recalcified (40 mM CaCl2) ACD anticoagulated blood was added. The mixture was incubated under stirring conditions (1,000 rpm) at 37° C. using an Eppendorf Thermomixer. Indicated samples were supplemented with tPA (25 μg/mL, Baxter) or DNase 1 (100 U/mL, Worthington Biochem). After 20 min, the blood was passed through a 100-μm cell strainer to isolate the clot. Images were acquired and the clot was determined. Thereafter, 10-μm frozen sections of the clot were prepared and stained for fibrinogen (mouse-antihuman-fibrinogen, Sigma) and VWF (rabbit-antihuman-VWF, Chemicon). Isotype control antibodies were used to determine background staining and DNA was labeled fluorescently by Hoechst 33258 (Invitrogen).

B1: tPA: tissue plasminogen activator (25 μg/mL, Baxter) for fibrin digestion (protein, UniProt P00750 36-562, looked up)
Tissue-type plasminogen …: SYQVICRDEKTQMIYQQHQSWLRPVLRSNRVEYCWCNSGRAQCHSVPVKSCSEPRCFNGGTCQQALYFSDFVCQCPEGFAGKCCEIDTRATCYEDQGISYRGTWSTAESGAECTNWNSSALAQKPYSGRRPDAIRLGLGNHNYCRNPDRDSKPWCYVFKAGKYSSEFCSTPACSEGNSDCYFGNGSAYRGTHSLTESGASCLPWNSMILIGKVYTAQNPSAQALGLGKHNYCRNPDGDAKPWCHVLKNRRLTWEYCDVPSCSTCGLRQYSQPQFRIKGGLFADIASHPWQAAIFAKHRRSPGERFLCGGILISSCWILSAAHCFQERFPPHHLTVILGRTYRVVPGEEEQKFEVEKYIVHKEFDDDTYDNDIALLQLKSDSSRCAQESSVVRTVCLPPADLQLPDWTECELSGYGKHEALSPFYSERLKEAHVRLYPSSRCTSQHLLNRTVTDNMLCAGDTRSGGPQANLHDACQGDSGGPLVCLNDGRMTLVGIISWGLGCGQKDVPGVYTKVTNYLDWIRDNMRP
clot formation (absence of activated neutrophils (medium), DNase 100 U/mL): prevented clot formation
fibrin in clot (presence of PAF-activated neutrophils): removed fibrin
clot formation / clot size (presence of PAF-activated neutrophils, DNase 100 U/mL): did not prevent clot formation; also recorded: reduced clot size
